Experimental data taken from patent US20230340140A1 (INNATE PHARMA, published 2023).

Tests used:
Human C5aR (C5aR1) [1] = biological target: T1, Human C5aR (C5aR1) (human, UniProt P21730 1-350); experiment: cell-based or functional assay
T1 sequence: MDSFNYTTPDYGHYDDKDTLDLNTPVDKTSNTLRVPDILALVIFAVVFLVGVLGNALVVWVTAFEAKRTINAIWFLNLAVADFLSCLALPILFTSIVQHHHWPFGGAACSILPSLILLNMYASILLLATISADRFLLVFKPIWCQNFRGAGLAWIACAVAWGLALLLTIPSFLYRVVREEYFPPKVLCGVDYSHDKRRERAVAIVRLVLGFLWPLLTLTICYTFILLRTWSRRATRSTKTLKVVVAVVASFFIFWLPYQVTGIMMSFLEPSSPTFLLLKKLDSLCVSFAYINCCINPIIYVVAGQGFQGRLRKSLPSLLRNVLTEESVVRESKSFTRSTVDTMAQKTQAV

Human C5aR (C5aR1) [2] = biological target: T1, Human C5aR (C5aR1); experiment: FACS titration on human neutrophils in vitro; FACS titration on human neutrophils in vitro, given in nM
Human C5aR (C5aR1) [3] = biological target: T1, Human C5aR (C5aR1); experiment: EC50 of C5aR saturation in the PD part of the PKPD model, derived from PK/receptor saturation data of the phase I trial; PD parameter of the PKPD model, from phase I PK/receptor saturation data; not in vitro
From the text: A PKPD model was built in Phoenix 64 WinNonLin version 8.1.0.3530, to predict avdoralimab serum concentrations in blood post s.c. administration, as well as C5aR saturation. Pharmacokinetics of therapeutic mAbs are usually modelled using a two-compartment model (Deng et al. 2011 MAbs 3(1): 61-66). Based on the PK results described in Example 1, avdoralimab is expected to display PK properties similar to other therapeutic antibodies in humans, except for compound-specific target-mediated drug disposition (TMDD). This TMDD effect can be modelled by an additional non-linear elimination added to the model (Wang et al. 2016 Biopharm. Drug Dispos. 37: 51-65). […] Absorption rate (Ka) and bioavailability (Ba) for s.c. administration were estimated based on PK results for Example 1. EC₅₀ in the PD part of PKPD model is derived from PK/RSA data observed in phase I clinical trial, and is similar to EC₅₀ binding to human neutrophils in vitro=0.34 nM=51 ng/mL in FACS titration assays.

EC50 for inhibition of C5a-induced CD11b expression on neutrophils in human whole blood (flow cytometry, MedFI, normalized) (Human C5aR (C5aR1) [1]): 0.34 µg/mL
EC50 (Human C5aR (C5aR1) [2]): 0.34 nM
EC50 (Human C5aR (C5aR1) [3]): 0.05 µg/mL
B1: Avdoralimab (antibody, human IgG1, kappa, V domains shown)
VH: EVQLVESGGGLVQPGGSLRLSCAASGFTFSSYVMHWVRQATGKGLEWVSAIDTGGGTYYADSVKGRFTISRENAKNSLYLQMNSLRAGDTAVYYCARDYYYYASGSYYKAFDIWGQGTMVTVSS
VL: EIVLTQSPGTLSLSPGERATLSCRASQSVSSRYLAWYQQKPGQAPRLLIYGASSRATGIPDRFSGSGSGTDFTLTISRLEPEDFAVYYCQQYGSPLTFGQGTKLEIKR
notes: also called IPH5401
